Blank lines part the entries; values can stand above or below the binder they belong to.
How the values were obtained:
endogenous calnexin = target: T1, endogenous calnexin (UniProt P27824 21-592); test: co-immunoprecipitation
T1 construct: Endogenous endoplasmic reticulum protein used as a control
T1 sequence (looked up): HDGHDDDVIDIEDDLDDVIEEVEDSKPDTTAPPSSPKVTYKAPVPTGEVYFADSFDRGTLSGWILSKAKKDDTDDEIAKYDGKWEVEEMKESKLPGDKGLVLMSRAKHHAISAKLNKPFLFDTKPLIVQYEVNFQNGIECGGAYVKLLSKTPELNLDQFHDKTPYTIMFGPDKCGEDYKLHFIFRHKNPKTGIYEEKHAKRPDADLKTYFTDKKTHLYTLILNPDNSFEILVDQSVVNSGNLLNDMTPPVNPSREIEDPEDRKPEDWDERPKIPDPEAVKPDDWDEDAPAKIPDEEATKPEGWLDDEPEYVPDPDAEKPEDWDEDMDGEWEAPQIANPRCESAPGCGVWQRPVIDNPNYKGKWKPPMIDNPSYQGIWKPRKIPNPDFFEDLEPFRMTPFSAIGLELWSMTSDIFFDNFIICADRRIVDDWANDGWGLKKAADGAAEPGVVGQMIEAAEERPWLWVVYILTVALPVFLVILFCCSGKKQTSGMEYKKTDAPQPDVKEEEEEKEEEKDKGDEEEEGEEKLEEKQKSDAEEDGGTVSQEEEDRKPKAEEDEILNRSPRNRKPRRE

[1] = target: wild type PS1 (wtPS1) holoprotein (human, UniProt P49768 1-467); test: co-immunoprecipitation with anti-PS1 loop or N-terminus antibodies, Western blot
Method: Co-immunoprecipitation and glycerol velocity gradient fractionation were performed as previously described in Yu et al., 1998, J.Biol.Chem. 273:16470-16475. Immunoprecipitations were performed on cell lysates 48 hours after transient transfections. Total proteins (2 mg/ml) were extracted from cultured cells or brain tissue using a lysis buffer (0.2% NP-40, 0.5% Triton X-100, 50 mM Tris-HCl [pH7.6], 150 mM NaCl, 2 mM EDTA, 2 mM PMSF, […] each of aprotinin, leupeptin, pepstatin). […] New York, Cold Spring Harbor Laboratory Press. Protein A Sepharose was subsequently added to the antibody-antigen complex and incubated for 2 hours at 4° C. The beads were washed four times with a washing buffer (0.2% NP-40, 50 mM Tris-HCl[pH7.6], 150 mM NaCl, 2 mM EDTA). IP products were resolved by SDS-PAGE and investigated for the co-immunoprecipitated partners with the corresponding antibody and detection with ECL (Amersham). […]
Western blots of anti-PS 1 immunoprecipitates from PS1 transfected HEK293 cells were examined for the presence of other arm proteins expressed endogenously in HEK293 cells. Endogenous β-catenin, but not endogenous α-catenin, γ-catenin, or calnexin were detected in Western blots of immunoprecipitation products from HEK293 cells stably transfected with PS1, using either antibodies to PS1 cytoplasmic loop or to the PS1 N-terminus.

binding result (endogenous calnexin): no binding
B1: Myc-tagged hNPRAP528-1084 (other, human)
chain: ALKMPIIQDALAVLTNAVIIPHSGWENSPLQDDRKIQLHSSQVLRNATGCLRNVSSAGEEARRRMRECDGLTDALLYVIQSALGSSEIDSKTVENCVCILRNLSYRLAAETSQGQHMGTDELDGLLCGEANGKDAESSGCWGKKKKKKKSQDQWDGVGPLPDCAEPPKGIQMLWHPSIVKPYLTLLSECSNPDTLEGAAGALQNLAAGSWKWSVYIRAAVRKEKGLPILVELLRIDNDRVVCAVATALRNMALDVRNKELIGKYAMRDLVHRLPGGNNSNNTASKAMSDDTVTAVCCTLHEVITKNMENAKALRDAGGIEKLVGISKSKGDKHSPKVVKAASQVLNSMWQYRDLRSLYKKDGWSQYHFVASSSTIERDRQRPYSSSRTPSISPVRVSPNNRSASAPASPREMISLKERKTDYECTGSNATYHGGKGEHTSRKDAMTAQNTGISTLYRNSYGAPAEDIKHNQVSAQPVPQEPSRKDYETYQPFQNSTRNYDESFFEDQVHHRPPASEYTMHLGLKSTGNYVDFYSAARPYSELNYETSHYPASPDSWV
notes: Transiently expressed in HEK293 cells; also called myc-hNPRAP

binding result [1]: no binding
B2: endogenous α-catenin (other)
chain: TAVHAGNINFKWDPKSLEIRTLAVERLLEPLVTQVTTLVNTNSKGPSNKKRGRSKKAHVLAASVEQATENFLEKGDKIAKESQFLKEELVAAVEDVRKQGDLMKAAAGEFADDPCSSVKRGNMVRAARALLSAVTRLLILADMADVYKLLVQLKVVEDGILKLRNAGNEQDLGIQYKALKPEVDKLNIMAAKRQQELKDVGHRDQMAAARGILQKNVPILYTASQACLQHPDVAAYKANRDLIYKQLQQAVTGISNAAQATASDDASQHQGGGGGELAYALNNFDKQIIVDPLSFSEERFRPSLEERLESIISGAALMADSSCTRDDRRERIVAECNAVRQALQDLLSEYMGNAGRKERSDALNSAIDKMTKKTRDLRRQLRKAVMDHVSDSFLETNVPLLVLIEAAKNGNEKEVKEYAQVFREHANKLIEVANLACSISNNEEGVKLVRMSASQLEALCPQVINAALALAAKPQSKLAQENMDLFKEQWEKQVRVLTDAVDDITSIDDFLAVSENHILEDVNKCVIALQEKDVDGLDRTAGAIRGRAARVIHVVTSEMDNYEPGVYTEKVLEATKLLSNTVMPRFTEQVEAAVEALSSDPAQPMDENEFIDASRLVYDGIRDIRKAVLMIRTPEELDDSDFETEDFDVRSRTSVQTEDDQLIAGQSARAIMAQLPQEQKAKIAEQVASFQEEKSKLDAEVSKWDDSGNDIIVLAKQMCMIMMEMTDFTRGKGPLKNTSDVISAAKKIAEAGSRMDKLGRTIADHCPDSACKQDLLAYLQRIALYCHQLNICSKVKAEVQNLGGELVVSGVDSAMSLIQAAKNLMNAVVQTVKASYVASTKYQKSQGMASLNLPAVSWKMKAPEKKPLVKREKQDETQTKIKRASQKKHVNPVQALSEFKAMDSI
notes: Endogenous protein of HEK293 cell lysates

From patent US20020127541A1 (GOVERNING COUNCIL OF THE UNIVERSITY OF TORONTO, published 2002)
